Target: T1, recombinant human IL-1α (human, UniProt P01583 113-271)
T1 sequence (looked up): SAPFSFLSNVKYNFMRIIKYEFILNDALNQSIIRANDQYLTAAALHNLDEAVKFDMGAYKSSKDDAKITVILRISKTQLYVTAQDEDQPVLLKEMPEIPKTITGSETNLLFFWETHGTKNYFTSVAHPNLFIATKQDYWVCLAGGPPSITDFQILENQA
Test: cell-based or functional assay

B1: hIL-1a/bDVD1-Ig (bispecific antibody, human IgG1, kappa)
heavy: not shown
light: NIVLTQSPASLAVSLGQRATISCRASESVDSYGNSYMHWYQQKPGQPPKLLIYLASNLESGVPARFSGSGSRTDFTLTIDPVEADDAATYYCQQNNEDPFTFGSGTKLEIKRNIQMTQTTSSLSASLGDRVTISCRASQDISNCLNWYQQKPDGTVKLLIYYTSRLHSGVPSRFSGSGSGTDYSLTISNLEQEDIATYFCQQGKTLPYAFGGGTKLEINRTVAAPSVFIFPPSDEQLKSGTASVVCLLNNFYPREAKVQWKVDNALQSGNSQESVTEQDSKDSTYSLSSTLTLSKADYEKHKVYACEVTHQGLSSPVTKSFNRGEC
- neutralizing activity in the MRC-5 bioassay, fold less than the chimeric Abs: 3 fold
